PMC9407465

How the values were obtained:
[1] = luciferase reporters; settings: glycan lost
[2] = IP and acetylation immunoblot; settings: glycan lost; control: wild type Gli2

Row | Protein | other: transcriptional activity ([1]; control: wild type GLI2) | other: transcriptional activity ([1]; control: wild type Gli2) | other: Gli2 acetylation [2]
1 | human GLI2: S358A (protein) parent chain: METSASATASEKQEAKSGILEAAGFPDPGKKASPLVVAAAAAAAVAAQGVPQHLLPPFHAPLPIDMRHQEGRYHYEPHSVHGVHGPPALSGSPVISDISLIRLSPHPAGPGESPFNAPHPYVNPHMEHYLRSVHSSPTLSMISAARGLSPADVAQEHLKERGLFGLPAPGTTPSDYYHQMTLVAGHPAPYGDLLMQSGGAASAPHLHDYLNPVDVSRFSSPRVTPRLSRKRALSISPLSDASLDLQRMIRTSPNSLVAYINNSRSSSAASGSYGHLSAGALSPAFTFPHPINPVAYQQILSQQRGLGSAFGHTPPLIQPSPTFLAQQPMALTSINATPTQLSSSSNCLSDTNQNKQSSESAVSSTVNPVAIHKRSKVKTEPEGLRPASPLALTQGQVSGHGSCGCALPLSQEQLADLKEDLDRDDCKQEAEVVIYETNCHWEDCTKEYDTQEQLVHHINNEHIHGEKKEFVCRWQACTREQKPFKAQYMLVVHMRRHTGEKPHKCTFEGCSKAYSRLENLKTHLRSHTGEKPYVCEHEGCNKAFSNASDRAKHQNRTHSNEKPYICKIPGCTKRYTDPSSLRKHVKTVHGPDAHVTKKQRNDVHLRTPLLKENGDSEAGTEPGGPESTEASSTSQAVEDCLHVRAIKTESSGLCQSSPGAQSSCSSEPSPLGSAPNNDSGVEMPGTGPGSLGDLTALDDTPPGADTSALAAPSAGGLQLRKHMTTMHRFEQLKKEKLKSLKDSCSWAGPTPHTRNTKLPPLPGSGSILENFSGSGGGGPAGLLPNPRLSELSASEVTMLSQLQERRDSSTSTVSSAYTVSRRSSGISPYFSSRRSSEASPLGAGRPHNASSADSYDPISTDASRRSSEASQCSGGSGLLNLTPAQQYSLRAKYAAATGGPPPTPLPGLERMSLRTRLALLDAPERTLPAGCPRPLGPRRGSDGPTYGHGHAGAAPAFPHEAPGGGARRASDPVRRPDALSLPRVQRFHSTHNVNPGPLPPCADRRGLRLQSHPSTDGGLARGAYSPRPPSISENVAMEAVAAGVDGAGPEADLGLPEDDLVLPDDVVQYIKAHASGALDEGTGQVYPTESTGFSDNPRLPSPGLHGQRRMVAADSNVGPSAPMLGGCQLGFGAPSSLNKNNMPVQWNEVSSGTVDALASQVKPPPFPQGNLAVVQQKPAFGQYPGYSPQGLQASPGGLDSTQPHLQPRSGAPSQGIPRVNYMQQLRQPVAGSQCPGMTTTMSPHACYGQVHPQLSPSTISGALNQFPQSCSNMPAKPGHLGHPQQTEVAPDPTTMGNRHRELGVPDSALAGVPPPHPVQSYPQQSHHLAASMSQEGYHQVPSLLPARQPGFMEPQTGPMGVATAGFGLVQPRPPLEPSPTGRHRGVRAVQQQLAYARATGHAMAAMPSSQETAEAVPKGAMGNMGSVPPQPPPQDAGGAPDHSMLYYYGQIHMYEQDGGLENLGSCQVMRSQPPQPQACQDSIQPQPLPSPGVNQVSSTVDSQLLEAPQIDFDAIMDDGDHSSLFSGALSPSLLHSLSQNSSRLTTPRNSLTLPSIPAGISNMAVGDMSSMLTSLAEESKFLNMMT | decreases |  | 
2 | human GLI2: S358D (protein) parent chain: METSASATASEKQEAKSGILEAAGFPDPGKKASPLVVAAAAAAAVAAQGVPQHLLPPFHAPLPIDMRHQEGRYHYEPHSVHGVHGPPALSGSPVISDISLIRLSPHPAGPGESPFNAPHPYVNPHMEHYLRSVHSSPTLSMISAARGLSPADVAQEHLKERGLFGLPAPGTTPSDYYHQMTLVAGHPAPYGDLLMQSGGAASAPHLHDYLNPVDVSRFSSPRVTPRLSRKRALSISPLSDASLDLQRMIRTSPNSLVAYINNSRSSSAASGSYGHLSAGALSPAFTFPHPINPVAYQQILSQQRGLGSAFGHTPPLIQPSPTFLAQQPMALTSINATPTQLSSSSNCLSDTNQNKQSSESAVSSTVNPVAIHKRSKVKTEPEGLRPASPLALTQGQVSGHGSCGCALPLSQEQLADLKEDLDRDDCKQEAEVVIYETNCHWEDCTKEYDTQEQLVHHINNEHIHGEKKEFVCRWQACTREQKPFKAQYMLVVHMRRHTGEKPHKCTFEGCSKAYSRLENLKTHLRSHTGEKPYVCEHEGCNKAFSNASDRAKHQNRTHSNEKPYICKIPGCTKRYTDPSSLRKHVKTVHGPDAHVTKKQRNDVHLRTPLLKENGDSEAGTEPGGPESTEASSTSQAVEDCLHVRAIKTESSGLCQSSPGAQSSCSSEPSPLGSAPNNDSGVEMPGTGPGSLGDLTALDDTPPGADTSALAAPSAGGLQLRKHMTTMHRFEQLKKEKLKSLKDSCSWAGPTPHTRNTKLPPLPGSGSILENFSGSGGGGPAGLLPNPRLSELSASEVTMLSQLQERRDSSTSTVSSAYTVSRRSSGISPYFSSRRSSEASPLGAGRPHNASSADSYDPISTDASRRSSEASQCSGGSGLLNLTPAQQYSLRAKYAAATGGPPPTPLPGLERMSLRTRLALLDAPERTLPAGCPRPLGPRRGSDGPTYGHGHAGAAPAFPHEAPGGGARRASDPVRRPDALSLPRVQRFHSTHNVNPGPLPPCADRRGLRLQSHPSTDGGLARGAYSPRPPSISENVAMEAVAAGVDGAGPEADLGLPEDDLVLPDDVVQYIKAHASGALDEGTGQVYPTESTGFSDNPRLPSPGLHGQRRMVAADSNVGPSAPMLGGCQLGFGAPSSLNKNNMPVQWNEVSSGTVDALASQVKPPPFPQGNLAVVQQKPAFGQYPGYSPQGLQASPGGLDSTQPHLQPRSGAPSQGIPRVNYMQQLRQPVAGSQCPGMTTTMSPHACYGQVHPQLSPSTISGALNQFPQSCSNMPAKPGHLGHPQQTEVAPDPTTMGNRHRELGVPDSALAGVPPPHPVQSYPQQSHHLAASMSQEGYHQVPSLLPARQPGFMEPQTGPMGVATAGFGLVQPRPPLEPSPTGRHRGVRAVQQQLAYARATGHAMAAMPSSQETAEAVPKGAMGNMGSVPPQPPPQDAGGAPDHSMLYYYGQIHMYEQDGGLENLGSCQVMRSQPPQPQACQDSIQPQPLPSPGVNQVSSTVDSQLLEAPQIDFDAIMDDGDHSSLFSGALSPSLLHSLSQNSSRLTTPRNSLTLPSIPAGISNMAVGDMSSMLTSLAEESKFLNMMT | decreases |  | 
3 | Gli2 (GLI family zinc finger 2): S355A (protein) parent chain: METSAPAPALEKKEAKSGLLEDSSFPDPGKKACPLAVAAAVAAHGVPQQLLPAFHAPLPIDMRHQEGRYHYDPHSVHSVHGPPTLSGSPVISDISLIRLSPHPAGPGESPFSAHHPYVNPHMEHYLRSVHSSPTLSMISAARGLSPADVAHEHLKERGLFSLAAPGTNPSDYYHQMTLMASHPTPYGDLLMQSGGAASAPHLHDYLNPVDASRFSSPRVTPRLSRKRALSISPLSDASLDLQRMIRTSPNSLVAYINNSRSSSAASGSYGHLSAGALSPAFTFPHPINPVAYQQILSQQRGLGSAFGHTPPLIQPSPTFLAQQPMTLTSISTMPTQLSSSSSNCLNDANQNKQNSESAVSSTVNPITIHKRSKVKTEAEGLRPASPLGLTQEQLADLKEDLDRDDCKQEAEVVIYETNCHWADCTKEYDTQEQLVHHINNEHIHGEKKEFVCRWQACTREQKPFKAQYMLVVHMRRHTGEKPHKCTFEGCSKAYSRLENLKTHLRSHTGEKPYVCEHEGCNKAFSNASDRAKHQNRTHSNEKPYICKIPGCTKRYTDPSSLRKHVKTVHGPDAHVTKKQRNDVHVRAPLLKENGDNEASAEPGGRGPEESVEASSTSHTVEDCLHIKAIKTESSGLCQSSPGAQSSCSSEPSPLGSAPNNDSGMEMPGTGPGSLGDLTALADTCPGADTSALAAPSTGGLQLRKHMSTVHRFEQLKREKLKSLKDSCSWAGPAPHTRNTKLPPLPVNGSVLENFNNTGGGGPAGLLPSQRLPELTEVTMLSQLQERRDSSTSTMSSAYTVSRRSSGISPYFSSRRSSEASPLGGLRPHNASSADSYDPISTDASRRSSEASQCSGGGPGLLNLTPAQQYNLRAKYAAATGGPPPTPLPGLDRVSLRTRLALLDAPERALPGACPHPLGPRRGSDGPTYSHGHGHGYAGAAPAFPHEGPNSSTRRASDPVRRPDPLILPRVQRFHSTHNMNPGSLPPCADRRGLHVQSHPSVDSNLTRNAYSPRPPSINENVVMEAVAAGVDGPGLECDLGLVEDELVLPDDVVQYIKAHTGGTLDDGIRQGYPTEGTGFPENSKLPSPGLQGHRRLAAADSNMGPSAPGLGGCQLSYSPSSNLNKSNMPVQWNEVSSGTVDALPTQVKPPPFPHSNLAVVQQKPAFGQYPGYNPQSVQSSSGGLDSTQPHLQLRGAPSASRGSYTQQPRQPAAGSQCLGMSAAMSPQASYSQAHPQLSPNIVSGSLNQFSPSCSNMAAKPSHLGLPQQMEVVPNATIMNGHQREHGVPNSSLAAVSQPHPVLSYPQQDSYQQGSNLLSSHQPGFMESQQNAGFGLMQPRPPLEPNTASRHRGVRSGQQQLYARTTGQAMVTSANQETAEAMPKGPAGTMVSLAPQPSQDTGRAQDQNTLYYYGQIHMYEQNGGCPAVQPQPPQPQACSDSIQPEPLPSPGVNQVSSTVDSQLLEPPQIDFDAIMDDGDHSSLFSGALSPTLLHNLSQNSSRLTTPRNSLTLPSIPAGISNMAVGDMSSMLTSLAEESKFLNMMT |  | decreases | increases
4 | Gli2 (GLI family zinc finger 2): S355D (protein) parent chain: METSAPAPALEKKEAKSGLLEDSSFPDPGKKACPLAVAAAVAAHGVPQQLLPAFHAPLPIDMRHQEGRYHYDPHSVHSVHGPPTLSGSPVISDISLIRLSPHPAGPGESPFSAHHPYVNPHMEHYLRSVHSSPTLSMISAARGLSPADVAHEHLKERGLFSLAAPGTNPSDYYHQMTLMASHPTPYGDLLMQSGGAASAPHLHDYLNPVDASRFSSPRVTPRLSRKRALSISPLSDASLDLQRMIRTSPNSLVAYINNSRSSSAASGSYGHLSAGALSPAFTFPHPINPVAYQQILSQQRGLGSAFGHTPPLIQPSPTFLAQQPMTLTSISTMPTQLSSSSSNCLNDANQNKQNSESAVSSTVNPITIHKRSKVKTEAEGLRPASPLGLTQEQLADLKEDLDRDDCKQEAEVVIYETNCHWADCTKEYDTQEQLVHHINNEHIHGEKKEFVCRWQACTREQKPFKAQYMLVVHMRRHTGEKPHKCTFEGCSKAYSRLENLKTHLRSHTGEKPYVCEHEGCNKAFSNASDRAKHQNRTHSNEKPYICKIPGCTKRYTDPSSLRKHVKTVHGPDAHVTKKQRNDVHVRAPLLKENGDNEASAEPGGRGPEESVEASSTSHTVEDCLHIKAIKTESSGLCQSSPGAQSSCSSEPSPLGSAPNNDSGMEMPGTGPGSLGDLTALADTCPGADTSALAAPSTGGLQLRKHMSTVHRFEQLKREKLKSLKDSCSWAGPAPHTRNTKLPPLPVNGSVLENFNNTGGGGPAGLLPSQRLPELTEVTMLSQLQERRDSSTSTMSSAYTVSRRSSGISPYFSSRRSSEASPLGGLRPHNASSADSYDPISTDASRRSSEASQCSGGGPGLLNLTPAQQYNLRAKYAAATGGPPPTPLPGLDRVSLRTRLALLDAPERALPGACPHPLGPRRGSDGPTYSHGHGHGYAGAAPAFPHEGPNSSTRRASDPVRRPDPLILPRVQRFHSTHNMNPGSLPPCADRRGLHVQSHPSVDSNLTRNAYSPRPPSINENVVMEAVAAGVDGPGLECDLGLVEDELVLPDDVVQYIKAHTGGTLDDGIRQGYPTEGTGFPENSKLPSPGLQGHRRLAAADSNMGPSAPGLGGCQLSYSPSSNLNKSNMPVQWNEVSSGTVDALPTQVKPPPFPHSNLAVVQQKPAFGQYPGYNPQSVQSSSGGLDSTQPHLQLRGAPSASRGSYTQQPRQPAAGSQCLGMSAAMSPQASYSQAHPQLSPNIVSGSLNQFSPSCSNMAAKPSHLGLPQQMEVVPNATIMNGHQREHGVPNSSLAAVSQPHPVLSYPQQDSYQQGSNLLSSHQPGFMESQQNAGFGLMQPRPPLEPNTASRHRGVRSGQQQLYARTTGQAMVTSANQETAEAMPKGPAGTMVSLAPQPSQDTGRAQDQNTLYYYGQIHMYEQNGGCPAVQPQPPQPQACSDSIQPEPLPSPGVNQVSSTVDSQLLEPPQIDFDAIMDDGDHSSLFSGALSPTLLHNLSQNSSRLTTPRNSLTLPSIPAGISNMAVGDMSSMLTSLAEESKFLNMMT |  | decreases | 
